Assay results reported in article PMC3931076, “Crystal Structures of Leukotriene C4 Synthase in Complex with Product Analogs” (The Journal of Biological Chemistry, 2013).

Target: the molecule itself
Test: crystal structure; sitting drop vapor diffusion at room temperature, 3.5 mg/ml protein with 1 mM GSH; 1.8-2.2 M NH4SO4, 0.2 M NaCl, 0.1 M sodium cacodylate pH 6.1-6.8; analog I soaked, analogs II and III co-crystallised; space group F23

B1: Leukotriene C4 synthase (human, wild type) (enzyme)
chain: MKDEVALLAAVTLLGVLLQAYFSLQVISARRAFRVSPPLTTGPPEFERVYRAQVNCSEYFPLFLATLWVAGIFFHEGAAALCGLVYLFARLRYFQGYARSAQLRLAPLYASARALWLLVALAALGLLAHFLPAALRAALLGRLRTLLPWA
notes: Leukotriene C4 synthase, human, wild type; integral membrane protein in dodecyl maltoside; Expression and purification 'essentially as described (15)'; The trimer arises by crystal symmetry (space group F23); also called LTC4S; LTC4 synthase
stoichiometry N: 3
